Laboratory results from PMC7232412.

B1: unnamed (parent)
chain 1: MAVSESQLKKMVSKYKYRDLTVRETVNVITLYKDLKPVLDSYVFNDGSSRELMNLTGTIPVPYRGNTYNIPICLWLLDTYPYNPPICFVKPTSSMTIKTGKHVDANGKIYLPYLHEWKHPQSDLLGLIQVMIVVFGDEPPVFSRPISASYPPYQATGPPNTSYMPGMPGGISPYPSGYPPNPSGYPGCPYPPGGPYPATTSSQYPSQPPVTTVGPSRDGTISEDTIRASLISAVSDKLRWRMKEEMDRAQAELNALKRTEEDLKKGHQKLEEMVTRLDQEVAEVDKNIELLKKKDEELSSALEKMENQSENNDIDEVIIPTAPLYKQILNLYAEENAIEDTIFYLGEALRRGVIDLDVFLKHVRLLSRKQFQLRALMQKARKTAGLSDLY
chain 2: LQSRPEPTAPPEESFRSGVETTTPPQKQEPIDKELYPLTSLRSLFGNDPSSQ

Variants of: B1
Experiment: yeast 2-hybrid assay
Settings: with partner chain of the complex shown; parent: 1; read off a plot
Work on chain 1 MAVSESQLKKAAAAYKYRDLTVRETVNVITLYKDLKPVLDSYVFNDGSSRELMNLTGTIPVPYRGNTYNIPICLWLLDTYPYNPPICFVKPTSSMTIKTGKHVDANGKIYLPYLHEWKHPQSDLLGLIQVMIVVFGDEPPVFSRPISASYPPYQATGPPNTSYMPGMPGGISPYPSGYPPNPSGYPGCPYPPGGPYPATTSSQYPSQPPVTTVGPSRDGTISEDTIRASLISAVSDKLRWRMKEEMDRAQAELNALKRTEEDLKKGHQKLEEMVTRLDQEVAEVDKNIELLKKKDEELSSALEKMENQSENNDIDEVIIPTAPLYKQILNLYAEENAIEDTIFYLGEALRRGVIDLDVFLKHVRLLSRKQFQLRALMQKARKTAGLSDLY [chain 1 M11A V12A S13A K14A] yielded a ratio to parent of 1.9.
chain 1 MAVSESQLKKMVSKYKYRDLTVRETVNVITLYKDLKPVLDAYVFNDGSSRELMNLTGTIPVPYRGNTYNIPICLWLLDTYPYNPPICFVKPTSSMTIKTGKHVDANGKIYLPYLHEWKHPQSDLLGLIQVMIVVFGDEPPVFSRPISASYPPYQATGPPNTSYMPGMPGGISPYPSGYPPNPSGYPGCPYPPGGPYPATTSSQYPSQPPVTTVGPSRDGTISEDTIRASLISAVSDKLRWRMKEEMDRAQAELNALKRTEEDLKKGHQKLEEMVTRLDQEVAEVDKNIELLKKKDEELSSALEKMENQSENNDIDEVIIPTAPLYKQILNLYAEENAIEDTIFYLGEALRRGVIDLDVFLKHVRLLSRKQFQLRALMQKARKTAGLSDLY [chain 1 S41A] showed a ratio to parent of 1.3.
Variant chain 1 MAVSESQLKKMVSKYKYRDLTVRETVNVITLYKDLKPVLDSYVFNDGSSRELMNLTGTIPVPYRGNTYNIPICLWLLDTYPANPPICFVKPTSSMTIKTGKHVDANGKIYLPYLHEWKHPQSDLLGLIQVMIVVFGDEPPVFSRPISASYPPYQATGPPNTSYMPGMPGGISPYPSGYPPNPSGYPGCPYPPGGPYPATTSSQYPSQPPVTTVGPSRDGTISEDTIRASLISAVSDKLRWRMKEEMDRAQAELNALKRTEEDLKKGHQKLEEMVTRLDQEVAEVDKNIELLKKKDEELSSALEKMENQSENNDIDEVIIPTAPLYKQILNLYAEENAIEDTIFYLGEALRRGVIDLDVFLKHVRLLSRKQFQLRALMQKARKTAGLSDLY [chain 1 Y82A] has a ratio to parent of 0.8.
With chain 1 MAVSESQLKKMVSKYKYRDLTVRETVNVITLYKDLKPVLDSAVFNDGSSRELMNLTGTIPVPYRGNTYNIPICLWLLDTYPYNPPICFVKPTSSMTIKTGKHVDANGKIYLPYLHEWKHPQSDLLGLIQVMIVVFGDEPPVFSRPISASYPPYQATGPPNTSYMPGMPGGISPYPSGYPPNPSGYPGCPYPPGGPYPATTSSQYPSQPPVTTVGPSRDGTISEDTIRASLISAVSDKLRWRMKEEMDRAQAELNALKRTEEDLKKGHQKLEEMVTRLDQEVAEVDKNIELLKKKDEELSSALEKMENQSENNDIDEVIIPTAPLYKQILNLYAEENAIEDTIFYLGEALRRGVIDLDVFLKHVRLLSRKQFQLRALMQKARKTAGLSDLY [chain 1 Y42A] the ratio to parent was 0.95.
chain 1 MAVSESQLKKMVSKYAYRDLTVRETVNVITLYKDLKPVLDSYVFNDGSSRELMNLTGTIPVPYRGNTYNIPICLWLLDTYPYNPPICFVKPTSSMTIKTGKHVDANGKIYLPYLHEWKHPQSDLLGLIQVMIVVFGDEPPVFSRPISASYPPYQATGPPNTSYMPGMPGGISPYPSGYPPNPSGYPGCPYPPGGPYPATTSSQYPSQPPVTTVGPSRDGTISEDTIRASLISAVSDKLRWRMKEEMDRAQAELNALKRTEEDLKKGHQKLEEMVTRLDQEVAEVDKNIELLKKKDEELSSALEKMENQSENNDIDEVIIPTAPLYKQILNLYAEENAIEDTIFYLGEALRRGVIDLDVFLKHVRLLSRKQFQLRALMQKARKTAGLSDLY [chain 1 K16A] showed a ratio to parent of 2.4.
chain 1 MAVSESQLAAMVSKYKYRDLTVRETVNVITLYKDLKPVLDSYVFNDGSSRELMNLTGTIPVPYRGNTYNIPICLWLLDTYPYNPPICFVKPTSSMTIKTGKHVDANGKIYLPYLHEWKHPQSDLLGLIQVMIVVFGDEPPVFSRPISASYPPYQATGPPNTSYMPGMPGGISPYPSGYPPNPSGYPGCPYPPGGPYPATTSSQYPSQPPVTTVGPSRDGTISEDTIRASLISAVSDKLRWRMKEEMDRAQAELNALKRTEEDLKKGHQKLEEMVTRLDQEVAEVDKNIELLKKKDEELSSALEKMENQSENNDIDEVIIPTAPLYKQILNLYAEENAIEDTIFYLGEALRRGVIDLDVFLKHVRLLSRKQFQLRALMQKARKTAGLSDLY [chain 1 K9A K10A] gave a ratio to parent of 9.3.
In the case of chain 1 MAVSESQLKKMVSKYKYRDLTVRETVNVITLYKDLKPVLDSYVFNDGSSRELMNLTGTIPVPYRGNTYNIPICLWLLDTYPYNPPICFVKPTSSMTIKTGKHVDANGKIALPYLHEWKHPQSDLLGLIQVMIVVFGDEPPVFSRPISASYPPYQATGPPNTSYMPGMPGGISPYPSGYPPNPSGYPGCPYPPGGPYPATTSSQYPSQPPVTTVGPSRDGTISEDTIRASLISAVSDKLRWRMKEEMDRAQAELNALKRTEEDLKKGHQKLEEMVTRLDQEVAEVDKNIELLKKKDEELSSALEKMENQSENNDIDEVIIPTAPLYKQILNLYAEENAIEDTIFYLGEALRRGVIDLDVFLKHVRLLSRKQFQLRALMQKARKTAGLSDLY [chain 1 Y110A], the ratio to parent is reported as 0.35.
With chain 1 MAVSESAAKKMVSKYKYRDLTVRETVNVITLYKDLKPVLDSYVFNDGSSRELMNLTGTIPVPYRGNTYNIPICLWLLDTYPYNPPICFVKPTSSMTIKTGKHVDANGKIYLPYLHEWKHPQSDLLGLIQVMIVVFGDEPPVFSRPISASYPPYQATGPPNTSYMPGMPGGISPYPSGYPPNPSGYPGCPYPPGGPYPATTSSQYPSQPPVTTVGPSRDGTISEDTIRASLISAVSDKLRWRMKEEMDRAQAELNALKRTEEDLKKGHQKLEEMVTRLDQEVAEVDKNIELLKKKDEELSSALEKMENQSENNDIDEVIIPTAPLYKQILNLYAEENAIEDTIFYLGEALRRGVIDLDVFLKHVRLLSRKQFQLRALMQKARKTAGLSDLY [chain 1 Q7A L8A] the ratio to parent was 1.1.
chain 1 MAVSESQLKAMVSKYKYRDLTVRETVNVITLYKDLKPVLDSYVFNDGSSRELMNLTGTIPVPYRGNTYNIPICLWLLDTYPYNPPICFVKPTSSMTIKTGKHVDANGKIYLPYLHEWKHPQSDLLGLIQVMIVVFGDEPPVFSRPISASYPPYQATGPPNTSYMPGMPGGISPYPSGYPPNPSGYPGCPYPPGGPYPATTSSQYPSQPPVTTVGPSRDGTISEDTIRASLISAVSDKLRWRMKEEMDRAQAELNALKRTEEDLKKGHQKLEEMVTRLDQEVAEVDKNIELLKKKDEELSSALEKMENQSENNDIDEVIIPTAPLYKQILNLYAEENAIEDTIFYLGEALRRGVIDLDVFLKHVRLLSRKQFQLRALMQKARKTAGLSDLY [chain 1 K10A] showed a ratio to parent of 2.9.
